In patent US20130171217A1, “ENZYMATIC PERACID GENERATION FOR USE IN SKIN CARE PRODUCTS” (E I DU PONT DE NEMOURS AND COMPANY, priority 2010, published 2013):

Key:
[1] = Compatibility of perhydrolase with commercial moisturizer lotion, PAA indicator strip; type: physicochemical; details: ~0.1 mg/mL in lotion, room temperature (~21° C.)
Procedure: Lotion “A” was prepared by mixing 0.7667 g of SUAVE® Advanced Therapy Moisturizer (Lot#12148JU41, Unilever, CT) with 40 μL of perhydrolase fusion C277S-HC263 (10 mg/mL) in a 2-mL microfuge using an overhead mixer at 200 rpm for about 3 min. The concentration of C277S-HC263 (SEQ ID NO: 288) was about 0.1 mg/mL in lotion A.
Two control samples, i.e., A-control1 and A-control2, were prepared by replacing perhydrolase (C277S-HC263; SEQ ID NO: 288) with same volume of DI water and 50 mM phosphate buffer (pH 8), respectively.
Solution “B” was made by combining 44 μl of triacetin, 899 μL of 50 mM, pH 8, phosphate buffer, and 57 μL of H2O2 (30 wt %). Solution B was freshly made every time just before running the PAA indicator strip test.
After a predetermined time, 50 μl of lotion “A” and 50 μl of solution “B” were mixed gently for about 1 min. PAA indicator strips were used to test for the presence of PAA in the mixture as described in Example 10.

[2] = Assay for bound perhydrolase enzyme activity after treatment cycles (ABTS); type: binding
Procedure: The enzyme used in the following example was HC1121 (T. maritima C277S-HC263; SEQ ID NO: 288) and concentration used was 2500 μg/mL (E/H=10*). Enzyme solution was made in 5% TWEEN®-20 surfactant in 50 mM citrate buffer at pH 6. Approximately 0.8 mL of the enzyme solution was applied on ˜200 mg hair samples (4 test tresses) for 10 minutes. H2O2 and triacetin, formulations were made according to Example 24, in 20% LUBRIDERM® lotion in 50 mM citrate buffer at pH 6. After application of 400 μL each of the reagents, the treatment was allowed to continue for 20 minutes after which the hair was rinsed with tap-water and allowed to dry. Before proceeding with the next cycle the sample was subjected to the surfactant wash with 5% TWEEN®-20 in 50 mM citrate buffer at pH 6 and rinsed with tap-water.
After treatment for a defined number of cycles, 10 mg of hair was cut from each tress and placed into 2 mL microcentrifuge tubes (Eppendorf Protein LoBind; Eppendorf North America, Hauppauge, N.Y.). To each tube was added 480 uL of PAH buffer (50 mM potassium phosphate pH 7.2), 14 μL of 30% hydrogen peroxide (Sigma 3410), and 6 μL triacetin (Sigma-Aldrich, W200700). The perhydrolase reaction was allowed to proceed for 10 minutes at 25° C. The reaction was stopped by diluting aliquots 10×, 100× and 1000× with 10 mM phosphoric acid. For detection, 50 μL of 1 M acetic acid, 50 μL of 40 mg/mL potassium iodide, and 50 μL of 4 mM ABTS (2,2′-azino-bis(3-ethylbenzthiazoline-6-sulphonic acid; Sigma, St Louis, Mo.) were added to 50 μL of the above dilutions. Color was allowed to develop for 10 minutes and read in a spectrophotometer at 405 nm. Values from no-enzyme controls were subtracted to yield values attributable only to enzyme activity. A standard curve of OD 405 nm vs PAA concentration in ppm yielded a conversion factor of 8.75, such that an OD 405 nm of 1.0 corresponded to approximately 8.75 ppm PAA. This value was then multiplied by the appropriate dilution to arrive at the PAA concentration in the perhydrolase reaction.

B1: C277S-HC263: C277S variant of Thermotoga maritima perhydrolase fused via a flexible linker to hair-binding domain HC263 (protein)
chain: MAFFDLPLEELKKYRPERYEEKDFDEFWEETLAESEKFPLDPVFERMESHLKTVEAYDVTFSGYRGQRIKGWLLVPKLEEEKLPCVVQYIGYNGGRGFPHDWLFWPSMGYICFVMDTRGQGSGWLKGDTPDYPEGPVDPQYPGFMTRGILDPRTYYYRRVFTDAVRAVEAAASFPQVDQERIVIAGGSQGGGIALAVSALSKKAKALLCDVPFLCHFRRAVQLVDTHPYAEITNFLKTHRDKEEIVFRTLSYFDGVNFAARAKIPALFSVGLMDNISPPSTVFAAYNYYAGPKEIRIYPYNNHEGGGSFQAVEQVKFLKKLFEKGGPGSGGAGSPGSAGGPGSPSAQSQLPDKHSGLHERAPQRYGPEPEPEPEPIPEPPKEAPVVIEKPKPKPKPKPKPPAHDHKNQKETHQRHAAGSGGGGSPHHHHHH
[1]
  time perhydrolase activity retained in SUAVE® moisturizer: at least 30 days
[2]; 10 mg hair after 1 cycle
  OD 405nm: 0.172
[2]; 10 mg hair after 1 cycle, 10 min reaction
  PAA: 150.8 ppm
[2]; 10 mg hair after 4 cycles
  OD 405nm: 0.439
  PAA: 384.1 ppm
[2]; 10 mg hair after 8 cycles
  OD 405nm: 0.901
  PAA: 788.4 ppm
[2]; 10 mg hair after 12 cycles
  OD 405nm: 1.287
  PAA: 1126.1 ppm
[2]; 10 mg hair after 16 cycles
  OD 405nm: 1.894
  PAA: 1657 ppm
